# Earlier results as cited in article PMC8834348.
# Assays:
# [1] = molecular target: flotillin 1 (Homo sapiens) (UniProt O75955)
# [2] = molecular target: flotillin 2 (Homo sapiens) (UniProt Q14254)
# Sequence of UniProt Q14254 (Q14254 2-428): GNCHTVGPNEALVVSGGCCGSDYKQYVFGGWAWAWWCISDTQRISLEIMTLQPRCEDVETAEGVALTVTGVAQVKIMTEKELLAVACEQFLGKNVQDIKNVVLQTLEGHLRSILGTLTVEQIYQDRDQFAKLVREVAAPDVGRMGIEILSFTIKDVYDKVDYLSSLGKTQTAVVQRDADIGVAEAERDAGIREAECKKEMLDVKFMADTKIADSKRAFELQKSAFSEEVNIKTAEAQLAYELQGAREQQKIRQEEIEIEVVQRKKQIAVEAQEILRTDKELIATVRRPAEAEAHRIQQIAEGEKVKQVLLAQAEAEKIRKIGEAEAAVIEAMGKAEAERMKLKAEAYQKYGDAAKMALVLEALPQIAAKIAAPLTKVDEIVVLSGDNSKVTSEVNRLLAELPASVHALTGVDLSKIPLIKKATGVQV
# Sequence of UniProt O75955 (O75955 whole entry): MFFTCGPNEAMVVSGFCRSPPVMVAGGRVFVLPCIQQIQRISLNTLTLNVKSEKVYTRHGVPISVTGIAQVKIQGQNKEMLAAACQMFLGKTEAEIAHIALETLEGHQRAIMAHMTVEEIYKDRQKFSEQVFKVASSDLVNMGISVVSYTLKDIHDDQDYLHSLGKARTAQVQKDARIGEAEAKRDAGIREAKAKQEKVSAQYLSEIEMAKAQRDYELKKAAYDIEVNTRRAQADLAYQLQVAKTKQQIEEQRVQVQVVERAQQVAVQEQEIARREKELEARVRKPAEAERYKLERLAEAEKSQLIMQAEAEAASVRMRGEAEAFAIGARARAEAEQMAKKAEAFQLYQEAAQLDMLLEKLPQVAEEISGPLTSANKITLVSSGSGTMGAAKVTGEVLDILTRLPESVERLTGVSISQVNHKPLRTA
substance,measurement,setting,value
MPP1 D5 domain (from UniProt Q00013),Kd,[1],30 nM
same,Kd,[2],30 nM
